Experiments:
Experiment in all cases: SPR, antibody captured, C2 as analyte;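 note: biacore at 37 °C, anti-C2 mAbs held by immobilised goat anti-human IgG, C2 alanine or serine mutants injected, double-referenced sensorgrams fitted to a 1:1 kinetic or steady-state model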
[1] = molecular target: T1, human C2 N325A (human, UniProt P06681 21-752)
T1 sequence: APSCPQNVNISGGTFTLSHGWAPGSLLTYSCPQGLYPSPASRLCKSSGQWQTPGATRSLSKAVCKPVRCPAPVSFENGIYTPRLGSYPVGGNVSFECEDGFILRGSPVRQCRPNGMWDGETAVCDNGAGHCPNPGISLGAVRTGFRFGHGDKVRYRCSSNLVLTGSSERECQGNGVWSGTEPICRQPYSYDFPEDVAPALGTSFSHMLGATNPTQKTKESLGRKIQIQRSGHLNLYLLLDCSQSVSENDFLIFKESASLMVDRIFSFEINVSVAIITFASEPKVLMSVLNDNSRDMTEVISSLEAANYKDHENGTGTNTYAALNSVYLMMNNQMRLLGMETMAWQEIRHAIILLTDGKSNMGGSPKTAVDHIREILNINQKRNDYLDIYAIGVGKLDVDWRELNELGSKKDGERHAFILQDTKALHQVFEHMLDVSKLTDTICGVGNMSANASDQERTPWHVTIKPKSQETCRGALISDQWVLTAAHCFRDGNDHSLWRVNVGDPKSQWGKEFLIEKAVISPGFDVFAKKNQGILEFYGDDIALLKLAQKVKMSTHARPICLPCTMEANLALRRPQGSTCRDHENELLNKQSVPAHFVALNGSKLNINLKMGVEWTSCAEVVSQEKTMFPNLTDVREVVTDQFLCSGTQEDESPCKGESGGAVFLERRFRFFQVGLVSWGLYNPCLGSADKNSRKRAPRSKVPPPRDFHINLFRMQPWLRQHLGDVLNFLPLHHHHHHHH

[2] = molecular target: T2, human C2 E267A (human, UniProt P06681 21-752)
T2 sequence: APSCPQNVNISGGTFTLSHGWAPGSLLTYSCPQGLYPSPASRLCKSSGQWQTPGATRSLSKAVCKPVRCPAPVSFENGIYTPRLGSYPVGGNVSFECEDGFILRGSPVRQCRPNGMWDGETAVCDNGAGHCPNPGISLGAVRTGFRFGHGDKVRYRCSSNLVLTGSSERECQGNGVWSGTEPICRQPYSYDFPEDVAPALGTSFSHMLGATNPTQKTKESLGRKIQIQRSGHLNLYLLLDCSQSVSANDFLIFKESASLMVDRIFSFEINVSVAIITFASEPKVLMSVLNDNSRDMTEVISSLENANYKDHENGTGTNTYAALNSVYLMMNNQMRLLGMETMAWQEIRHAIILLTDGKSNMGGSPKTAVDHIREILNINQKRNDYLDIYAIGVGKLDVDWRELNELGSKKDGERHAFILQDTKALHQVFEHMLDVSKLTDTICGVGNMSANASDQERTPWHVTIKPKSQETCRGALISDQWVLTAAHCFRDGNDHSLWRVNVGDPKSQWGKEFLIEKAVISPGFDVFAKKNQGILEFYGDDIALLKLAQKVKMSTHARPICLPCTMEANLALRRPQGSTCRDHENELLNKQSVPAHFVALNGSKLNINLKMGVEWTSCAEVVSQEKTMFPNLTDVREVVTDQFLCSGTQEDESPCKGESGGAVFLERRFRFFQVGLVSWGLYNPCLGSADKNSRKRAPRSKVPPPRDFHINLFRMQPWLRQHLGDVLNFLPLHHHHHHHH

[3] = molecular target: T3, human C2 S456A (human, UniProt P06681 21-752)
T3 sequence: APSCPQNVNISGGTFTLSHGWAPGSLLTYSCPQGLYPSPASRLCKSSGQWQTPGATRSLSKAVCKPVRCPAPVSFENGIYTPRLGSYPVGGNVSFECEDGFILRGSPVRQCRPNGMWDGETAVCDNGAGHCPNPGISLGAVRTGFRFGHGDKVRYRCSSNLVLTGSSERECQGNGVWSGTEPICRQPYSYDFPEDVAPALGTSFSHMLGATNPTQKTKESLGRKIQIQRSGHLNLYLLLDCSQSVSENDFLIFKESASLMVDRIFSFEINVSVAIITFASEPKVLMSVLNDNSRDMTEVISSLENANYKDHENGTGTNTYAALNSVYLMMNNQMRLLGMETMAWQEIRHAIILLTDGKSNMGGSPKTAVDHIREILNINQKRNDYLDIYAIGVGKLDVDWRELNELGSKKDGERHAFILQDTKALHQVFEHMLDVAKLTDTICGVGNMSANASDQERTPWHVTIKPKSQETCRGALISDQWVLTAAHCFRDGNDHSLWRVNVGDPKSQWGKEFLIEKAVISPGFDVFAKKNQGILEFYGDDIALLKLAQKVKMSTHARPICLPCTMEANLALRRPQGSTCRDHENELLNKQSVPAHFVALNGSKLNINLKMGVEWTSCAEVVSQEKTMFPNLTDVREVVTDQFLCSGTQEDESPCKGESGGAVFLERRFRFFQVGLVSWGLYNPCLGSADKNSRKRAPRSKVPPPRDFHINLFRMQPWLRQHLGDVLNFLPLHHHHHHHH

[4] = molecular target: T4, human C2 E476A (human, UniProt P06681 21-752)
T4 sequence: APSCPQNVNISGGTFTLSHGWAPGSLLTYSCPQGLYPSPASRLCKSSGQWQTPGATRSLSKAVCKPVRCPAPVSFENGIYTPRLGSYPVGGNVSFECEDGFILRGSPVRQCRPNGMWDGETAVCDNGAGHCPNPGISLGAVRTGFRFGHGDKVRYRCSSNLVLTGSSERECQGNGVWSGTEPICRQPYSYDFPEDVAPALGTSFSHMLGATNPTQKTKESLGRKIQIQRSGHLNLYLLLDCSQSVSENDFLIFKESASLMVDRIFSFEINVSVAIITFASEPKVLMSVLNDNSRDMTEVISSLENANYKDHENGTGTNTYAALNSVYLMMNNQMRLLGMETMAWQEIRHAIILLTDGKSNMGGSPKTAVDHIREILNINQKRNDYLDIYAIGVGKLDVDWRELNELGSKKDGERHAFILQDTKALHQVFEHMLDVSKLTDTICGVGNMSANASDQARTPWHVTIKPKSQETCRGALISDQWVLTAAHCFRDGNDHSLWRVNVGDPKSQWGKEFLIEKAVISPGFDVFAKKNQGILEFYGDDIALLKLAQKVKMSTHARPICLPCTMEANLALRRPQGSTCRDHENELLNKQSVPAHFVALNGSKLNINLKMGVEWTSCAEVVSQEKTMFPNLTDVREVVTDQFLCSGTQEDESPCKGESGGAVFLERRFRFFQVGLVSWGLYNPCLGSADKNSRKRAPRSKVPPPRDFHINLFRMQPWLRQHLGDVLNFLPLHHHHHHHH

B1: RF16-242 (antibody, human IgG4 S228P, lambda, V domains shown)
VH: EVQLLQSGAEVKKPGESLKISCKGSGYSFTSYWIGWVRQMPGKGLEWMGIIYPGDSDTRYSPSFQGQVTISADKSISTAYLQWSSLKASDTAMYYCARRGHYGDYFDYWGQGTLVTVSS
VL: SYELTQPPSVSVSPGQTARITCSGDALPKKYAYWYHQKSGQAPVLVIYEDRRRPSEIPERFSGSSSGTMATLTITGAQVEDEGVYFCYSRDRAGNQRVFGGGTQLTVLG
notes: pH-dependent anti-C2 antibody from a phage display library
- Kd [1]: 39.9 nM
- Kd [2]: 12.1 nM
- Kd [3]: 59.8 nM
- Kd [4]: 14 nM
